One molecule from patent EP4663202A1 (Innovent Biologics (Suzhou) Co., Ltd., dated 2025) can be followed below.

Test [1] has as its target T1, human VEGFC (human, UniProt P49767 103-227, limits assumed).
T1 sequence (looked up): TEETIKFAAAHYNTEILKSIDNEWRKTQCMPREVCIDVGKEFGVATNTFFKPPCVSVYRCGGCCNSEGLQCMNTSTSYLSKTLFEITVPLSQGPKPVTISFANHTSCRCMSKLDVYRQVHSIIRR
The test can be described thus: cell-based or functional assay.

The target of test [2] is T1, human VEGFC. The test is described as follows: biolayer interferometry (ForteBio), monovalent antigen-antibody binding, 30 C.

B1: anti-VEGFC antibody am63G12.1-5G8-18B9 (VHH)
VHH: EVQLVESGGGLVQPGGSLRLSCAASGSSFSPYAMGWYRQAPGKQRELVSATSSGGFTLYADSVKGRFTISRDNSKNTVYLQMNSLRAEDTAVYYCYTYYREYDPEMYWGQGTQVTVSS
notes: also called anti-VEGFC humanized VHH antibody
As for B1, in the test with human VEGFC [1], the “IC50 of inhibition of VEGFC-induced activation of the KDR signaling pathway (NFAT-RE-luc2P/KDR HEK293 reporter cells)” value was ~4.46 nM; the “IC50 of inhibition of hVEGFC-induced BaF3-FLT4 survival and proliferation (CCK-8)” value is 0.792 nM. Moreover, in the test with human VEGFC [2], the affinity, expressed as Kd, was 5.7 nM; the koff (as a rule, the rate constant with which the complex falls apart) worked out at 0.00036 s⁻¹; the on-rate constant (kon) – broadly, a measure of how fast the partners come together – came to 63100 M⁻¹ s⁻¹.
